We go through 15 molecules from patent publication US20220041691A1, “METHODS FOR DIAGNOSING OR TREATING POST-TRAUMATIC STRESS DISORDER, AND COMPOSITIONS THEREFOR” (Centre for Addiction and Mental Health, priority 2018, published 2022).

Entries after “also recorded” stand apart in the source; their conditions may differ. Like-named read-outs stand apart in the source and are kept apart here. Ends that are not written are not given here.

One may read the Kd as the free concentration of one partner at which half of the binding sites on the other are occupied at equilibrium, for simple one-to-one binding.

For test [1], the target named is T1, FKBP51 (Mus musculus, UniProt Q64378).
T1 construct: from tissue; host or cells: mouse brain
T1 sequence (Q64378 1-456): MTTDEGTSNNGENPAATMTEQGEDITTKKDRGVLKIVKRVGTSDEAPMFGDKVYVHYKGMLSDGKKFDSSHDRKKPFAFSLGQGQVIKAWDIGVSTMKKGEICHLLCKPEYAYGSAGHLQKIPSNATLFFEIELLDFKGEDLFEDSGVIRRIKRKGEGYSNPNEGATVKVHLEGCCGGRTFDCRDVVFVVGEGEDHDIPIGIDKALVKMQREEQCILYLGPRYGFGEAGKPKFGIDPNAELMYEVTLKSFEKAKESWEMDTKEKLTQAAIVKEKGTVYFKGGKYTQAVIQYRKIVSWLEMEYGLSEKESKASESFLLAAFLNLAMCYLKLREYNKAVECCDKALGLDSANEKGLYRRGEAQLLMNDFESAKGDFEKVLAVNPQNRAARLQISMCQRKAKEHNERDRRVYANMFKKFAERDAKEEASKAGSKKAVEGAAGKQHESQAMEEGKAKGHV
In words: GST pull-down of FKBP51 by GST-GR fragments in mouse brain tissue. The test is classed as binding. The text has this:
The present inventors identified that if increased GR-FKBP51 complex levels are part of the pathophysiology of PTSD, then disrupting the complex may rescue behaviors related to PTSD. To develop an agent (in this example, a peptide-based agent) capable of blocking the GR-FKBP51 interaction, experiments were first performed to identify the regions of the GR that are important to bind FKBP51 (and vice versa). Initially, GST-fusion proteins were used encoding the amino-terminus (NT) of GR (GRNT) and the carboxyl-terminus (CT) of GR (GRCT) for affinity purification. […] Extending this strategy, GRNT fragments were examined (see FIG. 8, where the 6 tested GRNT fragments, NT-1, NT-2, NT-3, NT-4, NT-5, and NT-6 are shown). […] Similarly, it was determined that the TPR (tetratricopeptide repeat) domains of FKBP51 bind GR (FIG. 2D). In these studies, GST-fusion proteins of 3 different portions of the FKBP51 protein were prepared (FK1, FK2, and TPR, see FIG. 9) and tested. The TPR fragment was identified as containing the relevant interaction region.
GST-fusion proteins encoding truncated GR fragments were amplified by PCR from full-length human cDNA clones. All constructs were sequenced to confirm the absence of PCR-generated errors. GST-fusion proteins were prepared from bacterial lysates with glutathione sepharose 4B beads as instructed by the manufacturer (Amersham).^25 To construct GST-fusion proteins encoding truncated GR, cDNA fragments were amplified by using PCR with specific primers. 5′ and 3′ oligonucleotides incorporated with specific restriction enzyme sites were used to facilitate sub-cloning into the pGEX-4T3 vector. To confirm appropriate splice fusion and correct nucleotide sequences, all constructs were re-sequenced.

In test [2] the target is T2, FKBP51-TPR (Homo sapiens, UniProt Q13451).
T2 construct: made in house; host or cells: bacteria
T2 sequence (Q13451 258-457): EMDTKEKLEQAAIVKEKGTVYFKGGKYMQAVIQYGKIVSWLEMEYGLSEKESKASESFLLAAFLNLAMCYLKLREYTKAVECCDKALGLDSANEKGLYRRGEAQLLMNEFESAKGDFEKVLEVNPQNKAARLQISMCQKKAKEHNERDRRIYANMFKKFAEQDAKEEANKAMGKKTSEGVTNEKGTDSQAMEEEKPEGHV
Put plainly: Surface plasmon resonance, binding of FKBP51 TPR domain to GR and its phosphorylation mutants. The note with it: Flag-tagged GR immobilized on sensor chip, 25° C. As for the experimental part:
The binding of FKBP51 TPR domain to GR and its phosphorylation mutants was determined by surface plasmon resonance using a Reichert SR7500DC instrument. Experiments were conducted at 25° C. with 2000 RU HEK293 expressed FLAG-tagged GR bound onto a FLAG antibody-coated Dextran 50,000 Da chip. Running buffer (PBS, pH 7.4 with 0.005% Tween 20) was used with a flow rate of 25 μl/min. With association time of 300s and dissociation of 240s, binding signals were determined by injecting various concentrations of the GST-FKBP51_TPR.
(In general: In SPR one partner is held on a chip, and binding of the other changes the refractive index at the surface.)

The target of test [3] is T3, FK506 Binding Protein 51 (FKBP51), endogenous, mouse brain / mouse lymphocyte lysate (mouse, UniProt Q64378 1-456).
T3 construct: Endogenous protein in tissue lysate; also called mouse FKBP51
T3 sequence (looked up): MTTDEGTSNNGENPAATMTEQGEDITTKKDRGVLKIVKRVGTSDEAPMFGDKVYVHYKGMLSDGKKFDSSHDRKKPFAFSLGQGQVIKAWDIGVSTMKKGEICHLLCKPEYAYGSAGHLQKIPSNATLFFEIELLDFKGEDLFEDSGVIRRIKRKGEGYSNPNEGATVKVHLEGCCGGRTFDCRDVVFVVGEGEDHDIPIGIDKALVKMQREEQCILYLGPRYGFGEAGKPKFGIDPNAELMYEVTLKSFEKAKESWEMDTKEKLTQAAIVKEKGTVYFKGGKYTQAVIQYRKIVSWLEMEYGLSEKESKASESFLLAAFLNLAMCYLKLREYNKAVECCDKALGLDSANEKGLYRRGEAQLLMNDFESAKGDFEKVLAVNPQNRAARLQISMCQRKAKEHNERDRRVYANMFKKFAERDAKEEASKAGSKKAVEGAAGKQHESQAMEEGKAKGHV
Put plainly: GST pull-down from mouse brain tissue, Western blot. (A western blot detects proteins with antibodies after separation by electrophoresis.)

Test [4] concerns the target T4, glucocorticoid receptor (GR), endogenous, mouse brain / mouse lymphocyte lysate (mouse, UniProt P06537 1-792, limits assumed).
T4 construct: Endogenous protein in tissue lysate; other cellular proteins are present in the co-IP and pull-down experiments; also called mouse GR
T4 sequence (looked up): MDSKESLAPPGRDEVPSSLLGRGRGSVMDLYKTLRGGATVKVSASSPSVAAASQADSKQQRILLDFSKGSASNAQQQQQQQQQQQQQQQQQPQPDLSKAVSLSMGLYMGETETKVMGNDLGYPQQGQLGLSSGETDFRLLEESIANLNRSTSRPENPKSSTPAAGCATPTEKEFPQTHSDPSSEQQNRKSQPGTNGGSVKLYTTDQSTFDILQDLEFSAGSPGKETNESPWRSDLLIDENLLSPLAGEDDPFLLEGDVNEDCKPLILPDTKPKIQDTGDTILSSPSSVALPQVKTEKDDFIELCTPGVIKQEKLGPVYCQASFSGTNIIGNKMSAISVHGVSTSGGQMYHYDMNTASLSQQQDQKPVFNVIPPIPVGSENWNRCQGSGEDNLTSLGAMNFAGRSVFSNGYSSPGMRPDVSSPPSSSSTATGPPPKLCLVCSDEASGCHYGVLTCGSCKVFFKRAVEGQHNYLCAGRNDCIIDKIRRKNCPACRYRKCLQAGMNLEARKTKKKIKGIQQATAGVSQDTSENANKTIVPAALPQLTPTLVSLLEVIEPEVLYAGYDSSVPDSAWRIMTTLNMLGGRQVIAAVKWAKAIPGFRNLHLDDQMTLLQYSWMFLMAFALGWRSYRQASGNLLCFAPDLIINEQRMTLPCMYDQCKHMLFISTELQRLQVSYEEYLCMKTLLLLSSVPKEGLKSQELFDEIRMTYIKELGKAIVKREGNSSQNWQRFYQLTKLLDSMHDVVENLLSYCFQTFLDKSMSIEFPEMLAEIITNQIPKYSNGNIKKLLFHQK
The description is as above.

As to “GST-GRNT4-1: GST-fusion protein of GR fragment SPWRSDLLIDENCLL (S211-L225) (also: GST fusion protein)”, the “pull-down (precipitation) of FKBP51 by GST-GR fragment, Western blot” value (“pull-down (precipitation) of FKBP51” for short) in test [1] is “can “pull-down””.

For “WT GR: Flag-tagged wild-type glucocorticoid receptor expressed in HEK293”, the dissociation constant (Kd) in test [2] (figure legend values, read-out: KD for binding FKBP51-TPR (SPR)) is 3.31 µM; in test [2] (read-out: KD for binding FKBP51 (SPR)), 3.31 ± 0.04 µM.

B1: GST-GRNT2 (other)
chain: SNAQQPDLSKAVSLSMGLYMGETETKVMGNDLGFPQQGQISLSSGETDLKLLEESIANLNRSTSVPENPK
notes: not shown: glutathione S-transferase (GST) tag from the pGEX-4T3 vector
In the case of B1, the binding result in test [3] was “no binding”.

B2: GST-GRNT6 (other)
chain: FNVIPPIPVGSENWNRCQGSGDDNLTSLGTLNFPGRTVFSNGYSSPSMRPDVSSPPSSSSTATTGPPPKL
notes: as for B1
Take B2: the binding result in test [3] is listed as “no binding”.

B3: GST-GRNT4: GST-fusion protein of GRNT fragment 4 (protein)
chain: SPWRSDLLIDENCLLSPLAGEDDSFLLEGNSNEDCKPLILPDTKPKIKDNGDLVLSSPSNVTLPQVKTEK
modifications: also: GST fusion protein
With B3, the “pull-down (precipitation) of FKBP51” value in test [1] was “can “pull-down””; in test [1] (listed as NT-4), “best precipitation of FKBP51”.

B4: GST-TPR2 (other)
chain: ESKASESFLLAAFLNLAMCYLKLREYTKAVECCDKALGLDSANEKGLYRR
modifications: cysteine pairing not given here; also: GST tag fusion, linker not given here
notes: also called FKBP51TPR-2; not shown: glutathione S-transferase (GST) tag; vector stated only for the GR fragments (pGEX-4T3)
Regarding B4, the binding result in test [4] is “no binding”.

B5: GST-GRNT: GST-fusion protein encoding the amino-terminus of GR (protein)
chain: MDSKESLTPGREENPSSVLAQERGDVMDFYKTLRGGATVKVSASSPSLAVASQSDSKQRRLLVDFPKGSVSNAQQPDLSKAVSLSMGLYMGETETKVMGNDLGFPQQGQISLSSGETDLKLLEESIANLNRSTSVPENPKSSASTAVSAAPTEKEFPKTHSDVSSEQQHLKGQTGTNGGNVKLYTTDQSTFDILQDLEFSSGSPGKETNESPWRSDLLIDENCLLSPLAGEDDSFLLEGNSNEDCKPLILPDTKPKIKDNGDLVLSSPSNVTLPQVKTEKEDFIELCTPGVIKQEKLGTVYCQASFPGANIIGNKMSAISVHGVSTSGGQMYHYDMNTASLSQQQDQKPIFNVIPPIPVGSENWNRCQGSGDDNLTSLGTLNFPGRTVFSNGYSSPSMRPDVSSPPSSSSTATTGPPPKL
modifications: left off: a dimerising Fc or GST
notes: GST-fusion protein encoding the amino-terminus of GR
On to B5, for which the “pull-down (precipitation) of FKBP51” value in test [1] was “can “pull-down”; also recorded: precipitated FKBP51”.

B6: GST-GRNT1 (other)
chain: MDSKESLTPGREENPSSVLAQERGDVMDFYKTLRGGATVKVSASSPSLAVASQSDSKQRRLLVDFPKGSV
notes: as for B1
Turning to B6, the binding result in test [3] is “no binding”.

B7: GST-TPR1 (other)
chain: EMDTKEKLEQAAIVKEKGTVYFKGGKYMQAVIQYGKIVSWLEMEYGLSEK
modifications: also: GST tag fusion, linker not given here
notes: also called FKBP51TPR-1; not shown: glutathione S-transferase (GST) tag; vector stated only for the GR fragments (pGEX-4T3)
For the molecule B7, the binding result in test [4] is “no binding”.

B8: GST-FK2 (other)
chain: EDGGIIRRTKRKGEGYSNPNEGATVEIHLEGRCGGRMFDCRDVAFTVGEGEDHDIPIGIDKALEKMQREEQCILYLGPRYGFGEAGKPKFGIEPNAELIYEVTLKSFEKAKESW
notes: also called FKBP51FK2; not shown: glutathione S-transferase (GST) tag; vector stated only for the GR fragments (pGEX-4T3)
On to B8, for which the binding result in test [4] is recorded as “no binding”.

B9: GST-TPR4 (other)
chain: IYANMFKKFAEQDAKEEANKAMGKKTSEGVTNEKGTDSQAMEEEKPEGHV
modifications: also: GST tag fusion, linker not given here
notes: also called FKBP51TPR-4; not shown: glutathione S-transferase (GST) tag; vector stated only for the GR fragments (pGEX-4T3)
For the molecule B9, the binding result in test [4] is reported as “no binding”.

B10: GST-GRNT3 (other)
chain: SSASTAVSAAPTEKEFPKTHSDVSSEQQHLKGQTGTNGGNVKLYTTDQSTFDILQDLEFSSGSPGKETNE
notes: as for B1
Regarding B10, in test [3], the binding result is “no binding”.

B11: GST-GRCT (GST fusion of the carboxyl-terminus of GR) (other)
chain: CLVCSDEASGCHYGVLTCGSCKVFFKRAVEGQHNYLCAGRNDCIIDKIRRKNCPACRYRKCLQAGMNLEARKTKKKIKGIQQATTGVSQETSENPGNKTIVPATLPQLTPTLVSLLEVIEPEVLYAGYDSSVPDSTWRIMTTLNMLGGRQVIAAVKWAKAIPGFRNLHLDDQMTLLQYSWMFLMAFALGWRSYRQSSANLLCFAPDLIINEQRMTLPCMYDQCKHMLYVSSELHRLQVSYEEYLCMKTLLLLSSVPKDGLKSQELFDEIRMTYIKELGKAIVKREGNSSQNWQRFYQLTKLLDSMHEVVENLLNYCFQTFLDKTMSIEFPEMLAEIITNQIPKYSNGNIKKLLFHQK
notes: as for B1
Regarding B11, the binding result in test [3] was “no binding”.

B12: GST-GRNT5 (other)
chain: EDFIELCTPGVIKQEKLGTVYCQASFPGANIIGNKMSAISVHGVSTSGGQMYHYDMNTASLSQQQDQKPI
notes: as for B1
As for B12, the binding result in test [3] was “no binding”.

B13: GST-FK1 (other)
chain: MTTDEGAKNNEESPTATVAEQGEDITSKKDRGVLKIVKRVGNGEETPMIGDKVYVHYKGKLSNGKKFDSSHDRNEPFVFSLGKGQVIKAWDIGVATMKKGEICHLLCKPEYAYGSAGSLPKIPSNATLFFEIELLDFKGEDLF
notes: also called FKBP51FK1; not shown: glutathione S-transferase (GST) tag; vector stated only for the GR fragments (pGEX-4T3)
Regarding B13, in test [4], the binding result was “no binding”.
